Data: patent US20140335077A1, “Compositions and Methods for the Treatment of Cancer Using IGF-IR Antagonists and MAPK/ERK Inhibitors” (priority 2013, published 2014)

Experiments:
Assay type in all cases: cell-based
[1] = test system: MIAPaCa2; assay: PrestoBlue cell viability, anti-IGF-1R antibody with U0126, MIAPaCa2 (pancreatic cancer); settings: 48 h
Method: (§1) Cells were incubated in 96 well tissue culture plates and cell viability was measured by PrestoBlue cell viability assay (Invitrogen, CA, USA) according to manufacturer's instructions. Fluorescence was measured with excitation at 560 nm and emission at 590 nm. Cell number was calculated from standard curves of fluorescence measurements from known numbers of cells. Triplicate cultures were performed on all experiments.
(§2) The effects of anti-IGF-1R antibodies/MEK inhibitor combination treatment on viability of different types of tumor cells were investigated using PrestoBlue cell viability assay (Invitrogen, CA, USA) according to manufacturer's instructions. (Table 3).
(§3) Cells were incubated in serum free medium for 12 h followed by pretreatment for 60 min without or with 0.5, 1, 3 or 5 μM of the ERK inhibitor U0126, and then treated without or with 100 ng/ml anti-IGF-1R antibodies (Figitumumab or αIR-3 (Calbiochem, US). Cells were incubated in 96 well tissue culture plates for 48 hours and cell viability was measured by PrestoBlue cell viability assay. Fluorescence was measured with excitation at 560 nm and emission at 590 nm. Cell number was calculated from standard curves of fluorescence measurements from known numbers of cells. Triplicate cultures were performed on all experiments. The inhibition induced by anti-IGF-1R antibodies treated cells was calculated as percentage of untreated cells.

[2] = test system: OMM 2.5; assay: PrestoBlue cell viability, anti-IGF-1R antibody with U0126, OMM 2.5 (liver metastasis of uveal melanoma); settings: OMM 2.5 cells, 48 h
Method: as §1, §2, §3

[3] = test system: HEPG2; assay: PrestoBlue cell viability, anti-IGF-1R antibody with U0126, HEPG2 (hepatic carcinoma); settings: 48 h
Method: as §1, §2, §3

[4] = test system: SKMel5; assay: PrestoBlue cell viability, anti-IGF-1R antibody with U0126, SKMel5 (melanoma); settings: 48 h
Method: as §1, §2, §3

[5] = test system: ZR75-1; assay: PrestoBlue cell viability, anti-IGF-1R antibody with U0126, ZR75-1 (breast carcinoma); settings: ZR75-1 cells, 48 h
Method: as §1, §2, §3

[6] = test system: SKMel28; assay: PrestoBlue cell viability, anti-IGF-1R antibody with U0126, SKMel28 (melanoma); settings: 48 h
Method: as §1, §2, §3

[7] = test system: IGF-1R, AKT and ERK phosphorylation; assay: IGF-1R signaling activation in ES cell lines (WB for P-IGF-1R, P-AKT, P-ERK)
[8] = test system: SKBR3 and IGF-1R knockout MEF cells (R−); assay: Cell viability of negative control cells (PrestoBlue); settings: 100 ng/ml, 48 h
Method: FIG. 1A-FIG. 1C. Effects of Figitumumab (CP-751871 (CP)) treatment on cell viability in ES cell lines. (A) Cell lysates were prepared from the indicated cell lines and analyzed by WB for total IGF-1R expression and GAPDH as a loading control. […] Data correspond to the mean±SEM from three independent experiments. […] (C) Indicated cells were treated without and with 100 ng/ml CP for 48 h in the absence (SFM) or presence of 10% fetal bovine serum (Serum) and cell viability assayed by PrestoBlue reagent. […] Data correspond to the mean±SEM from three independent experiments. Statistical analysis compared with SKBR3: *P<0.05, **P<0.01, **P<0.001.
as §1
IGF-1R expression was investigated in a panel of validated Ewing's sarcoma (ES) cell lines: SKES, RDES, CADO, A673 and SKNMC. Breast cancer cell line SKBR3, expressing low IGF-1R levels and IGF-1R knockout MEF cells (R−) were used as negative controls. […]

[9] = target: T1, IGF-1R/β-arr1 association (Homo sapiens, UniProt P08069); assay: β-arrestin1 recruitment to IGF-1R in ES cell lines (immunoprecipitation, WB); settings: 10 min stimulation; all ES cell lines
T1 construct: endogenous in cells; host or cells: Ewing's sarcoma cell lines
Method: FIG. 2A-FIG. 2D. Mechanism of CP induced IGF-1R downregulation: β-arrestin1 recruitment and receptor ubiquitination. (A) Cells incubated in serum free medium for 12 h were treated with 0, 0.1 or 1 μg/ml CP for 24 h. Protein lysates were analyzed by WB for IGF-1R and GAPDH as a loading control. […] Protein lysates were analyzed by WB for IGF-1R and GAPDH as a loading control. Signals were quantified by densitometry, normalized to GAPDH and expressed as a percentage of the IGF-1R at 0 h. Data correspond to the mean±SEM from three independent experiments. […] IGF-1R was immunoprecipitated from lysates and analyzed by WB (IB) for ubiquitination (Ub) and IGF-1R as a loading control. Molecular weight markers in KDa are indicated to the left of the panels. (D) β-Arrestin1 (β-arr1) was immunoprecipitated from cell lysates prepared as for (C). Immunoprecipitated proteins were analyzed by WB for IGF-1R. The whole lysates were analyzed by WB for GAPDH as a loading control.
Cells were lysed with 500 μl lysis buffer (110 mM KOAc, 0.5% (v/v) Triton X-100, 100 mM NaCl, protease inhibitor cocktail tablet (Roche), buffering salts pH 7.4). 500 μg of protein was incubated with Dynabeads protein G (10 μl) (Invitrogen, CA, USA) and 1 μg antibody overnight at 4° C. on a rotator platform. […]
These trends were confirmed by densitometric quantification of multiple experiments (FIG. 2B, graphs). […]

[10] = test system: MCF7; assay: PrestoBlue cell viability, anti-IGF-1R antibody with U0126, MCF7 (breast carcinoma); settings: 48 h
Method: as §1, §2, §3

[11] = U0126 0 μM (60 min pretreatment)
[12] = U0126 0.5 μM (60 min pretreatment)
[13] = U0126 1 μM (60 min pretreatment)
[14] = U0126 3 μM (60 min pretreatment)
[15] = U0126 5 μM (60 min pretreatment)
[16] = serum starved ES cells, stimulation up to 60 min

B1: CP-751,871: anti-IGF-1R antibody figitumumab (Pfizer), IGF-1R antagonist (antibody, chains of the INN, looked up)
heavy: EVQLLESGGGLVQPGGSLRLSCTASGFTFSSYAMNWVRQAPGKGLEWVSAISGSGGTTFYADSVKGRFTISRDNSRTTLYLQMNSLRAEDTAVYYCAKDLGWSDSYYYYYGMDVWGQGTTVTVSSASTKGPSVFPLAPCSRSTSESTAALGCLVKDYFPEPVTVSWNSGALTSGVHTFPAVLQSSGLYSLSSVVTVPSSNFGTQTYTCNVDHKPSNTKVDKTVERKCCVECPPCPAPPVAGPSVFLFPPKPKDTLMISRTPEVTCVVVDVSHEDPEVQFNWYVDGVEVHNAKTKPREEQFNSTFRVVSVLTVVHQDWLNGKEYKCKVSNKGLPAPIEKTISKTKGQPREPQVYTLPPSREEMTKNQVSLTCLVKGFYPSDIAVEWESNGQPENNYKTTPPMLDSDGSFFLYSKLTVDKSRWQQGNVFSCSVMHEALHNHYTQKSLSLSPG
light: DIQMTQFPSSLSASVGDRVTITCRASQGIRNDLGWYQQKPGKAPKRLIYAASRLHRGVPSRFSGSGSGTEFTLTISSLQPEDFATYYCLQHNSYPCSFGQGTKLEIKRTVAAPSVFIFPPSDEQLKSGTASVVCLLNNFYPREAKVQWKVDNALQSGNSQESVTEQDSKDSTYSLSSTLTLSKADYEKHKVYACEVTHQGLSSPVTKSFNRGEC
Percentage inhibition of antibody treated cells (100 ng/ml) [1, 11]: 27%
Percentage inhibition of antibody treated cells (100 ng/ml) [1, 12]: 35%
Percentage inhibition of antibody treated cells (100 ng/ml) [1, 13]: 55%
Percentage inhibition of antibody treated cells (100 ng/ml) [1, 14]: 78%
Percentage inhibition of antibody treated cells (100 ng/ml) [1, 15]: 89%
Percentage inhibition of antibody treated cells (100 ng/ml) [2, 11]: 7%
Percentage inhibition of antibody treated cells (100 ng/ml) [2, 12]: 33%
Percentage inhibition of antibody treated cells (100 ng/ml) [2, 13]: 65%
Percentage inhibition of antibody treated cells (100 ng/ml) [2, 14]: 87%
Percentage inhibition of antibody treated cells (100 ng/ml) [2, 15]: 89%
Percentage inhibition of antibody treated cells (100 ng/ml) [3, 11]: 7%
Percentage inhibition of antibody treated cells (100 ng/ml) [3, 12]: 11%
Percentage inhibition of antibody treated cells (100 ng/ml) [3, 13]: 22%
Percentage inhibition of antibody treated cells (100 ng/ml) [3, 14]: 27%
Percentage inhibition of antibody treated cells (100 ng/ml) [3, 15]: 37%
Percentage inhibition of antibody treated cells (100 ng/ml) [4, 11]: 22%
Percentage inhibition of antibody treated cells (100 ng/ml) [4, 12]: 30%
Percentage inhibition of antibody treated cells (100 ng/ml) [4, 13]: 35%
Percentage inhibition of antibody treated cells (100 ng/ml) [4, 14]: 39%
Percentage inhibition of antibody treated cells (100 ng/ml) [4, 15]: 42%
Percentage inhibition of antibody treated cells (100 ng/ml) [5, 11]: 5%
Percentage inhibition of antibody treated cells (100 ng/ml) [5, 12]: 9%
Percentage inhibition of antibody treated cells (100 ng/ml) [5, 13]: 12%
Percentage inhibition of antibody treated cells (100 ng/ml) [5, 14]: 12%
Percentage inhibition of antibody treated cells (100 ng/ml) [5, 15]: 15%
Percentage inhibition of antibody treated cells (100 ng/ml) [6, 11]: 5%
Percentage inhibition of antibody treated cells (100 ng/ml) [6, 12]: 15%
Percentage inhibition of antibody treated cells (100 ng/ml) [6, 13]: 17%
Percentage inhibition of antibody treated cells (100 ng/ml) [6, 14]: 25%
Percentage inhibition of antibody treated cells (100 ng/ml) [6, 15]: 29%
AKT phosphorylation [7, 16]: undetectable
IGF-1R phosphorylation [7, 16]: undetectable
ERK phosphorylation ([7]; serum starved cells, up to 60 min, all ES cell lines): clear ERK phosphorylation signals
Cell viability of negative control cells [8]: unaffected
β-arr1 recruitment to the receptor compared with IGF-1 [9]: much more potent than IGF-1 in recruiting β-arr1
Percentage inhibition of antibody treated cells (100 ng/ml) [10, 11]: 15%
Percentage inhibition of antibody treated cells (100 ng/ml) [10, 12]: 18%
Percentage inhibition of antibody treated cells (100 ng/ml) [10, 13]: 25%
Percentage inhibition of antibody treated cells (100 ng/ml) [10, 14]: 18%
Percentage inhibition of antibody treated cells (100 ng/ml) [10, 15]: 33%
